From FireProtDB (doi:10.1111/j.1432-1033.1994.tb18664.x)

B1: Ribonuclease HI, P0A7Y4 (parent)
chain: MLKQVEIFTDGSCLGNPGPGGYGAILRYRGREKTFSAGYTRTTNNRMELMAAIVALEALKEHCEVILSTDSQYVRQGITQWIHNWKKRGWKTADKKPVKNVDLWQRLDAALGQHQIKWEWVKGHAGHPENERCDELARAAAMNPTLEDTGYQVEV

Variants of: B1
Details: Escherichia coli (strain K12), Thermal, CD, NaCl 0.1 M, reversible: yes, structure 2RN2, whole UniProt chain shown
[1] = pH 5.5, 53.1 °C, Sodium acetate 20 mM

D134I
ddG of mutation (higher = less stable) (pH 3, 50 °C, glycine-HCl 10 mM): -0.69 kcal/mol | Tm (pH 3, glycine-HCl 10 mM): 52.3 °C | change of melting temperature, mutant - wild type (higher = more stable) (pH 3, glycine-HCl 10 mM): 2.3 °C | unfolding enthalpy (van 't Hoff) (pH 3, glycine-HCl 10 mM): 105 kcal/mol | ddG of mutation (higher = less stable) [1]: -1.27 kcal/mol | Tm (pH 5.5, Sodium acetate 20 mM): 57.7 °C | change of melting temperature, mutant - wild type (higher = more stable) (pH 5.5, Sodium acetate 20 mM): 4.6 °C | unfolding enthalpy (van 't Hoff) (pH 5.5, Sodium acetate 20 mM): 101 kcal/mol

D134L
ddG of mutation (higher = less stable) (pH 3, 50 °C, glycine-HCl 10 mM): -1.15 kcal/mol | Tm (pH 3, glycine-HCl 10 mM): 53.8 °C | change of melting temperature, mutant - wild type (higher = more stable) (pH 3, glycine-HCl 10 mM): 3.8 °C | unfolding enthalpy (van 't Hoff) (pH 3, glycine-HCl 10 mM): 118 kcal/mol | ddG of mutation (higher = less stable) [1]: -1.51 kcal/mol | Tm (pH 5.5, Sodium acetate 20 mM): 58.6 °C | change of melting temperature, mutant - wild type (higher = more stable) (pH 5.5, Sodium acetate 20 mM): 5.5 °C | unfolding enthalpy (van 't Hoff) (pH 5.5, Sodium acetate 20 mM): 96.4 kcal/mol

D134H
ddG of mutation (higher = less stable) (pH 3, 50 °C, glycine-HCl 10 mM): -0.53 kcal/mol | Tm (pH 3, glycine-HCl 10 mM): 51.7 °C | change of melting temperature, mutant - wild type (higher = more stable) (pH 3, glycine-HCl 10 mM): 1.7 °C | unfolding enthalpy (van 't Hoff) (pH 3, glycine-HCl 10 mM): 106 kcal/mol | ddG of mutation (higher = less stable) [1]: -1.94 kcal/mol

D134T
ddG of mutation (higher = less stable) (pH 3, 50 °C, glycine-HCl 10 mM): -0.12 kcal/mol | Tm (pH 3, glycine-HCl 10 mM): 50.4 °C | change of melting temperature, mutant - wild type (higher = more stable) (pH 3, glycine-HCl 10 mM): 0.4 °C | unfolding enthalpy (van 't Hoff) (pH 3, glycine-HCl 10 mM): 107 kcal/mol | Tm (pH 5.5, Sodium acetate 20 mM): 57 °C | change of melting temperature, mutant - wild type (higher = more stable) (pH 5.5, Sodium acetate 20 mM): 3.9 °C | unfolding enthalpy (van 't Hoff) (pH 5.5, Sodium acetate 20 mM): 90.2 kcal/mol

D134N
ddG of mutation (higher = less stable) (pH 3, 50 °C, glycine-HCl 10 mM): 0.1 kcal/mol | Tm (pH 3, glycine-HCl 10 mM): 49.7 °C | change of melting temperature, mutant - wild type (higher = more stable) (pH 3, glycine-HCl 10 mM): -0.3 °C | unfolding enthalpy (van 't Hoff) (pH 3, glycine-HCl 10 mM): 110 kcal/mol | Tm (pH 5.5, Sodium acetate 20 mM): 56.3 °C | change of melting temperature, mutant - wild type (higher = more stable) (pH 5.5, Sodium acetate 20 mM): 3.2 °C | unfolding enthalpy (van 't Hoff) (pH 5.5, Sodium acetate 20 mM): 96.9 kcal/mol

D134Q
ddG of mutation (higher = less stable) (pH 3, 50 °C, glycine-HCl 10 mM): -0.48 kcal/mol | Tm (pH 3, glycine-HCl 10 mM): 51.6 °C | change of melting temperature, mutant - wild type (higher = more stable) (pH 3, glycine-HCl 10 mM): 1.6 °C | unfolding enthalpy (van 't Hoff) (pH 3, glycine-HCl 10 mM): 114 kcal/mol | ddG of mutation (higher = less stable) [1]: -1.32 kcal/mol | Tm (pH 5.5, Sodium acetate 20 mM): 57.9 °C | change of melting temperature, mutant - wild type (higher = more stable) (pH 5.5, Sodium acetate 20 mM): 4.8 °C | unfolding enthalpy (van 't Hoff) (pH 5.5, Sodium acetate 20 mM): 96.9 kcal/mol

D134A
ddG of mutation (higher = less stable) (pH 3, 50 °C, glycine-HCl 10 mM): -0.89 kcal/mol | ddG of mutation (higher = less stable) [1]: -1.51 kcal/mol | Tm (pH 5.5, Sodium acetate 20 mM): 58.6 °C | change of melting temperature, mutant - wild type (higher = more stable) (pH 5.5, Sodium acetate 20 mM): 5.5 °C | unfolding enthalpy (van 't Hoff) (pH 5.5, Sodium acetate 20 mM): 118 kcal/mol

D134V
ddG of mutation (higher = less stable) (pH 3, 50 °C, glycine-HCl 10 mM): -0.31 kcal/mol | Tm (pH 3, glycine-HCl 10 mM): 51.1 °C | change of melting temperature, mutant - wild type (higher = more stable) (pH 3, glycine-HCl 10 mM): 1.1 °C | unfolding enthalpy (van 't Hoff) (pH 3, glycine-HCl 10 mM): 107 kcal/mol | ddG of mutation (higher = less stable) [1]: -1.12 kcal/mol | Tm (pH 5.5, Sodium acetate 20 mM): 57.2 °C | change of melting temperature, mutant - wild type (higher = more stable) (pH 5.5, Sodium acetate 20 mM): 4.1 °C | unfolding enthalpy (van 't Hoff) (pH 5.5, Sodium acetate 20 mM): 99 kcal/mol

D134S
ddG of mutation (higher = less stable) (pH 3, 50 °C, glycine-HCl 10 mM): -0.26 kcal/mol | Tm (pH 3, glycine-HCl 10 mM): 50.9 °C | change of melting temperature, mutant - wild type (higher = more stable) (pH 3, glycine-HCl 10 mM): 0.9 °C | unfolding enthalpy (van 't Hoff) (pH 3, glycine-HCl 10 mM): 106 kcal/mol | ddG of mutation (higher = less stable) [1]: -1.08 kcal/mol

D134E
ddG of mutation (higher = less stable) (pH 3, 50 °C, glycine-HCl 10 mM): -0.72 kcal/mol | Tm (pH 3, glycine-HCl 10 mM): 52.4 °C | change of melting temperature, mutant - wild type (higher = more stable) (pH 3, glycine-HCl 10 mM): 2.4 °C | unfolding enthalpy (van 't Hoff) (pH 3, glycine-HCl 10 mM): 108 kcal/mol | ddG of mutation (higher = less stable) [1]: -0.86 kcal/mol | Tm (pH 5.5, Sodium acetate 20 mM): 56.2 °C | change of melting temperature, mutant - wild type (higher = more stable) (pH 5.5, Sodium acetate 20 mM): 3.1 °C | unfolding enthalpy (van 't Hoff) (pH 5.5, Sodium acetate 20 mM): 102 kcal/mol
